In US20100040604A1:

Columns and labels:
[1] = molecular target: recombinant human TNFα (rhTNFα) (human) (UniProt P01375); test: SPR (BIAcore), biotinylated rhTNFα on streptavidin chip; [Ab] 6 nM
[2] = molecular target: recombinant human TNFα (rhTNFα) (human) (UniProt P01375); test: SPR (BIAcore), summary table
[3] = molecular target: recombinant human TNFα (rhTNFα) (human) (UniProt P01375); test: SPR (BIAcore), biotinylated rhTNFα on streptavidin chip; [Ab] 100 nM
[4] = molecular target: recombinant human TNFα (rhTNFα) (human) (UniProt P01375); test: SPR (BIAcore), biotinylated rhTNFα on streptavidin chip; [Ab] 3 nM
[5] = molecular target: recombinant human TNFα (rhTNFα) (human) (UniProt P01375); test: SPR (BIAcore), biotinylated rhTNFα on streptavidin chip; average over the concentrations
[6] = molecular target: recombinant human TNFα (rhTNFα) (human) (UniProt P01375); test: SPR (BIAcore), biotinylated rhTNFα on streptavidin chip; [Ab] 13 nM
[7] = molecular target: recombinant human TNFα (rhTNFα) (human) (UniProt P01375); test: SPR (BIAcore), biotinylated rhTNFα on streptavidin chip; [Ab] 25 nM
[8] = molecular target: recombinant human TNFα (rhTNFα) (human) (UniProt P01375); test: SPR (BIAcore), biotinylated rhTNFα on streptavidin chip; [Ab] 400 nM
[9] = molecular target: recombinant human TNFα (rhTNFα) (human) (UniProt P01375); test: SPR (BIAcore), biotinylated rhTNFα on streptavidin chip; [Ab] 200 nM
[10] = molecular target: recombinant human TNFα (rhTNFα) (human) (UniProt P01375); test: SPR (BIAcore), biotinylated rhTNFα on streptavidin chip; [Ab] 50 nM
[11] = molecular target: recombinant human TNFα (rhTNFα) (human) (UniProt P01375); test: cell-based or functional assay

recombinant human TNFα (rhTNFα) (human), sequence (P01375 77-233 limits assumed): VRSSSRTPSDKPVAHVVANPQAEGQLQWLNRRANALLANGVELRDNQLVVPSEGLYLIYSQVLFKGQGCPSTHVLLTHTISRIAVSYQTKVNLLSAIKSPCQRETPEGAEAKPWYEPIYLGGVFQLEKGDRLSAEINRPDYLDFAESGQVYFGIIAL

Substance: MAK 195 F(ab′)2 fragment (murine anti-hTNFα mAb)
- Ab, bound, RUs [1]: 433 RU
- koff [1]: 7.37e-05 s⁻¹
- rhTNFα/Ab [1]: 0.47
- Kd [2]: 460 pM
- Stoichiometry [2]: 1.4
- koff [2]: 8.7e-05 s⁻¹
- kon [2]: 190000 M⁻¹ s⁻¹
- Ab, bound, RUs [3]: 1140 RU
- koff [3]: 3.54e-05 s⁻¹
- rhTNFα/Ab [3]: 1.39
- Ab, bound, RUs [4]: 231 RU
- koff [4]: 6.95e-05 s⁻¹
- rhTNFα/Ab [4]: 0.26
- koff [5]: 4.94e-05 s⁻¹
- Ab, bound, RUs [6]: 708 RU
- koff [6]: 3.66e-05 s⁻¹
- rhTNFα/Ab [6]: 0.78
- Ab, bound, RUs [7]: 957 RU
- koff [7]: 4.41e-05 s⁻¹
- rhTNFα/Ab [7]: 1.09
- Ab, bound, RUs [8]: 881 RU
- koff [8]: 5.38e-05 s⁻¹
- rhTNFα/Ab [8]: 1.2
- Ab, bound, RUs [9]: 1080 RU
- koff [9]: 4.54e-05 s⁻¹
- rhTNFα/Ab [9]: 1.38
- Ab, bound, RUs [10]: 1110 RU
- koff [10]: 3.67e-05 s⁻¹
- rhTNFα/Ab [10]: 1.32
- IC50, neutralization of TNFα-induced L929 cytotoxicity [11]: 62 pM
